Biological target: human integrin αIIbβ3 on cells (K562 cells stably expressing αIIbβ3; human platelets) (human) (UniProt P08514)
Assay: FACS; displacement of Alexa647-labeled soluble fibrinogen from activated αIIbβ3-K562 cells

IC50: 0.0732 µM
Substance: eptifibatide (peptide)

— patent US20220356217A1
